# According to US20200270325A1 (Merck Sharp & Dohme, published 2020):
# Numbered stars: 1 amine (or outer) side, 2 acyl side, 3 side chain; on linkers, the order of the positions; unused ones are H or OH. Square brackets hold non-standard residues; d marks the D form. Side chains are listed from the residue outwards. Ends that are not written are not given here. * marks the point of attachment. C18 diacid = O=C(O)CCCCCCCCCCCCCCCCC(=O)*; γGlu = O=C(O)[C@H](CCC(=O)[*:2])N[*:1]; Met(O2) = CS(=O)(=O)CC[C@H](N)C(=O)O; αMeD = C[C@](N)(CC(=O)O)C(=O)O; Nle = CCCC[C@H](N)C(=O)O; AEEA = NCCOCCOCC(=O)O; Aib = CC(C)(N)C(=O)O
# B1: TP702 (peptide)
# peptide: H[Aib]QGTFTSDYSKYLDARAAQEFVK([AEEA-AEEA-γGlu-C18 diacid])WL[Met(O2)]DT-NH2
# modifications: N-terminus assumed
# SMILES: CC(C)C[C@H](NC(=O)[C@H](Cc1ccc(O)cc1)NC(=O)[C@H](CCCCN)NC(=O)[C@H](CO)NC(=O)[C@H](Cc1ccc(O)cc1)NC(=O)[C@H](CC(=O)O)NC(=O)[C@H](CO)NC(=O)[C@@H](NC(=O)[C@H](Cc1ccccc1)NC(=O)[C@@H](NC(=O)CNC(=O)[C@H](CCC(N)=O)NC(=O)C(C)(C)NC(=O)[C@@H](N)Cc1c[nH]cn1)[C@@H](C)O)[C@@H](C)O)C(=O)N[C@@H](CC(=O)O)C(=O)N[C@@H](C)C(=O)N[C@@H](CCCNC(=N)N)C(=O)N[C@@H](C)C(=O)N[C@@H](C)C(=O)N[C@@H](CCC(N)=O)C(=O)N[C@@H](CCC(=O)O)C(=O)N[C@@H](Cc1ccccc1)C(=O)N[C@H](C(=O)N[C@@H](CCCCNC(=O)COCCOCCNC(=O)COCCOCCNC(=O)CC[C@H](NC(=O)CCCCCCCCCCCCCCCCC(=O)O)C(=O)O)C(=O)N[C@@H](Cc1c[nH]c2ccccc12)C(=O)N[C@@H](CC(C)C)C(=O)N[C@@H](CCS(C)(=O)=O)C(=O)N[C@@H](CC(=O)O)C(=O)N[C@H](C(N)=O)[C@@H](C)O)C(C)C
# B2: TP703 (peptide)
# peptide: H[Aib]QGTFTSEYSKKLDARAAK([AEEA-AEEA-γGlu-C18 diacid])DFVQWL[Met(O2)]DT-NH2
# modifications: N-terminus assumed
# SMILES: CC(C)C[C@H](NC(=O)[C@H](CCCCN)NC(=O)[C@H](CCCCN)NC(=O)[C@H](CO)NC(=O)[C@H](Cc1ccc(O)cc1)NC(=O)[C@H](CCC(=O)O)NC(=O)[C@H](CO)NC(=O)[C@@H](NC(=O)[C@H](Cc1ccccc1)NC(=O)[C@@H](NC(=O)CNC(=O)[C@H](CCC(N)=O)NC(=O)C(C)(C)NC(=O)[C@@H](N)Cc1c[nH]cn1)[C@@H](C)O)[C@@H](C)O)C(=O)N[C@@H](CC(=O)O)C(=O)N[C@@H](C)C(=O)N[C@@H](CCCNC(=N)N)C(=O)N[C@@H](C)C(=O)N[C@@H](C)C(=O)N[C@@H](CCCCNC(=O)COCCOCCNC(=O)COCCOCCNC(=O)CC[C@H](NC(=O)CCCCCCCCCCCCCCCCC(=O)O)C(=O)O)C(=O)N[C@@H](CC(=O)O)C(=O)N[C@@H](Cc1ccccc1)C(=O)N[C@H](C(=O)N[C@@H](CCC(N)=O)C(=O)N[C@@H](Cc1c[nH]c2ccccc12)C(=O)N[C@@H](CC(C)C)C(=O)N[C@@H](CCS(C)(=O)=O)C(=O)N[C@@H](CC(=O)O)C(=O)N[C@H](C(N)=O)[C@@H](C)O)C(C)C
# B3: TP713 (peptide)
# peptide: H[Aib]QGTFTSDYSKYLDARAAK([AEEA-AEEA-γGlu-C18 diacid])EFVQWL[Met(O2)][αMeD]
# modifications: not fully specified (C-terminus); printed as HUQGTFTSDYSKYLDARAAK(PEG2PEG2γEC18-OH)EFVQWL2αMDT-NH2
# B4: TP736 (peptide)
# peptide: H[Aib]QGTFTSDYSKYLDARAAK([AEEA-AEEA-γGlu-C18 diacid])DFVQWL[Met(O2)]DT-OH
# modifications: N-terminus assumed
# SMILES: CC(C)C[C@H](NC(=O)[C@H](Cc1ccc(O)cc1)NC(=O)[C@H](CCCCN)NC(=O)[C@H](CO)NC(=O)[C@H](Cc1ccc(O)cc1)NC(=O)[C@H](CC(=O)O)NC(=O)[C@H](CO)NC(=O)[C@@H](NC(=O)[C@H](Cc1ccccc1)NC(=O)[C@@H](NC(=O)CNC(=O)[C@H](CCC(N)=O)NC(=O)C(C)(C)NC(=O)[C@@H](N)Cc1c[nH]cn1)[C@@H](C)O)[C@@H](C)O)C(=O)N[C@@H](CC(=O)O)C(=O)N[C@@H](C)C(=O)N[C@@H](CCCNC(=N)N)C(=O)N[C@@H](C)C(=O)N[C@@H](C)C(=O)N[C@@H](CCCCNC(=O)COCCOCCNC(=O)COCCOCCNC(=O)CC[C@H](NC(=O)CCCCCCCCCCCCCCCCC(=O)O)C(=O)O)C(=O)N[C@@H](CC(=O)O)C(=O)N[C@@H](Cc1ccccc1)C(=O)N[C@H](C(=O)N[C@@H](CCC(N)=O)C(=O)N[C@@H](Cc1c[nH]c2ccccc12)C(=O)N[C@@H](CC(C)C)C(=O)N[C@@H](CCS(C)(=O)=O)C(=O)N[C@@H](CC(=O)O)C(=O)N[C@H](C(=O)O)[C@@H](C)O)C(C)C
# B5: TP735 (peptide)
# peptide: H[Aib]QGTFTSDYSKYLDARAAK([AEEA-AEEA-γGlu-C18 diacid])DFVQWL[Met(O2)][αMeD]T-OH
# modifications: N-terminus assumed
# SMILES: CC(C)C[C@H](NC(=O)[C@H](Cc1ccc(O)cc1)NC(=O)[C@H](CCCCN)NC(=O)[C@H](CO)NC(=O)[C@H](Cc1ccc(O)cc1)NC(=O)[C@H](CC(=O)O)NC(=O)[C@H](CO)NC(=O)[C@@H](NC(=O)[C@H](Cc1ccccc1)NC(=O)[C@@H](NC(=O)CNC(=O)[C@H](CCC(N)=O)NC(=O)C(C)(C)NC(=O)[C@@H](N)Cc1c[nH]cn1)[C@@H](C)O)[C@@H](C)O)C(=O)N[C@@H](CC(=O)O)C(=O)N[C@@H](C)C(=O)N[C@@H](CCCNC(=N)N)C(=O)N[C@@H](C)C(=O)N[C@@H](C)C(=O)N[C@@H](CCCCNC(=O)COCCOCCNC(=O)COCCOCCNC(=O)CC[C@H](NC(=O)CCCCCCCCCCCCCCCCC(=O)O)C(=O)O)C(=O)N[C@@H](CC(=O)O)C(=O)N[C@@H](Cc1ccccc1)C(=O)N[C@H](C(=O)N[C@@H](CCC(N)=O)C(=O)N[C@@H](Cc1c[nH]c2ccccc12)C(=O)N[C@@H](CC(C)C)C(=O)N[C@@H](CCS(C)(=O)=O)C(=O)N[C@@](C)(CC(=O)O)C(=O)N[C@H](C(=O)O)[C@@H](C)O)C(C)C
# B6: TP737 (peptide)
# peptide: H[Aib]QGTFTSDYSKYLD[Aib]RAAQDFVK([AEEA-AEEA-γGlu-C18 diacid])WL[Met(O2)]DT-OH
# modifications: N-terminus assumed
# SMILES: CC(C)C[C@H](NC(=O)[C@H](Cc1c[nH]c2ccccc12)NC(=O)[C@H](CCCCNC(=O)COCCOCCNC(=O)COCCOCCNC(=O)CC[C@H](NC(=O)CCCCCCCCCCCCCCCCC(=O)O)C(=O)O)NC(=O)[C@@H](NC(=O)[C@H](Cc1ccccc1)NC(=O)[C@H](CC(=O)O)NC(=O)[C@H](CCC(N)=O)NC(=O)[C@H](C)NC(=O)[C@H](C)NC(=O)[C@H](CCCNC(=N)N)NC(=O)C(C)(C)NC(=O)[C@H](CC(=O)O)NC(=O)[C@H](CC(C)C)NC(=O)[C@H](Cc1ccc(O)cc1)NC(=O)[C@H](CCCCN)NC(=O)[C@H](CO)NC(=O)[C@H](Cc1ccc(O)cc1)NC(=O)[C@H](CC(=O)O)NC(=O)[C@H](CO)NC(=O)[C@@H](NC(=O)[C@H](Cc1ccccc1)NC(=O)[C@@H](NC(=O)CNC(=O)[C@H](CCC(N)=O)NC(=O)C(C)(C)NC(=O)[C@@H](N)Cc1c[nH]cn1)[C@@H](C)O)[C@@H](C)O)C(C)C)C(=O)N[C@@H](CCS(C)(=O)=O)C(=O)N[C@@H](CC(=O)O)C(=O)N[C@H](C(=O)O)[C@@H](C)O
# B7: TP704 (peptide)
# peptide: H[Aib]QGTFTSDYSKYLDARAAK([AEEA-AEEA-γGlu-C18 diacid])EFVQWL[Met(O2)]DT-NH2
# modifications: N-terminus assumed
# SMILES: CC(C)C[C@H](NC(=O)[C@H](Cc1ccc(O)cc1)NC(=O)[C@H](CCCCN)NC(=O)[C@H](CO)NC(=O)[C@H](Cc1ccc(O)cc1)NC(=O)[C@H](CC(=O)O)NC(=O)[C@H](CO)NC(=O)[C@@H](NC(=O)[C@H](Cc1ccccc1)NC(=O)[C@@H](NC(=O)CNC(=O)[C@H](CCC(N)=O)NC(=O)C(C)(C)NC(=O)[C@@H](N)Cc1c[nH]cn1)[C@@H](C)O)[C@@H](C)O)C(=O)N[C@@H](CC(=O)O)C(=O)N[C@@H](C)C(=O)N[C@@H](CCCNC(=N)N)C(=O)N[C@@H](C)C(=O)N[C@@H](C)C(=O)N[C@@H](CCCCNC(=O)COCCOCCNC(=O)COCCOCCNC(=O)CC[C@H](NC(=O)CCCCCCCCCCCCCCCCC(=O)O)C(=O)O)C(=O)N[C@@H](CCC(=O)O)C(=O)N[C@@H](Cc1ccccc1)C(=O)N[C@H](C(=O)N[C@@H](CCC(N)=O)C(=O)N[C@@H](Cc1c[nH]c2ccccc12)C(=O)N[C@@H](CC(C)C)C(=O)N[C@@H](CCS(C)(=O)=O)C(=O)N[C@@H](CC(=O)O)C(=O)N[C@H](C(N)=O)[C@@H](C)O)C(C)C
# B8: TP705 (peptide)
# peptide: H[Aib]QGTFTSDYSKYLDARAAK([AEEA-AEEA-γGlu-C18 diacid])DFVEWL[Met(O2)]KT-NH2
# modifications: N-terminus assumed
# SMILES: CC(C)C[C@H](NC(=O)[C@H](Cc1ccc(O)cc1)NC(=O)[C@H](CCCCN)NC(=O)[C@H](CO)NC(=O)[C@H](Cc1ccc(O)cc1)NC(=O)[C@H](CC(=O)O)NC(=O)[C@H](CO)NC(=O)[C@@H](NC(=O)[C@H](Cc1ccccc1)NC(=O)[C@@H](NC(=O)CNC(=O)[C@H](CCC(N)=O)NC(=O)C(C)(C)NC(=O)[C@@H](N)Cc1c[nH]cn1)[C@@H](C)O)[C@@H](C)O)C(=O)N[C@@H](CC(=O)O)C(=O)N[C@@H](C)C(=O)N[C@@H](CCCNC(=N)N)C(=O)N[C@@H](C)C(=O)N[C@@H](C)C(=O)N[C@@H](CCCCNC(=O)COCCOCCNC(=O)COCCOCCNC(=O)CC[C@H](NC(=O)CCCCCCCCCCCCCCCCC(=O)O)C(=O)O)C(=O)N[C@@H](CC(=O)O)C(=O)N[C@@H](Cc1ccccc1)C(=O)N[C@H](C(=O)N[C@@H](CCC(=O)O)C(=O)N[C@@H](Cc1c[nH]c2ccccc12)C(=O)N[C@@H](CC(C)C)C(=O)N[C@@H](CCS(C)(=O)=O)C(=O)N[C@@H](CCCCN)C(=O)N[C@H](C(N)=O)[C@@H](C)O)C(C)C
# Biological target: human Glucagon receptor (GCGR) (human, UniProt P47871 26-477)
# Sequence (P47871 26-477): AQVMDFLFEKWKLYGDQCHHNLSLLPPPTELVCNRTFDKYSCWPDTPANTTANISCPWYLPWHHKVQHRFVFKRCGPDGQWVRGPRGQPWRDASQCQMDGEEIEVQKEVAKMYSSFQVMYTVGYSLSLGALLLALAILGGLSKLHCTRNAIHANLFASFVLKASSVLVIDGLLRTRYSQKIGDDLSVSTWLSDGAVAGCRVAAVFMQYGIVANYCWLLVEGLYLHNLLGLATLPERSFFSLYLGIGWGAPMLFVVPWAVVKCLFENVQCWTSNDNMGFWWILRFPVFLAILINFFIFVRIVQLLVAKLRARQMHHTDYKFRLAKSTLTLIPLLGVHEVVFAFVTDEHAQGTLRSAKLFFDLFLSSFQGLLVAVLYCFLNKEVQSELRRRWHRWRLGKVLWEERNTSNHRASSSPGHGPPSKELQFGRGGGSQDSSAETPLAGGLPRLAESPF
# Experiment: cell-based or functional assay
row,Binder,GCGR EC50 human
1,"H[Aib]QGTFTSDYSKYLDARAA[Nle]([1,2,3‑triazole‑5-AEEA-AEEA-γGlu-C18 diacid])DFVQWL[Met(O2)]DT-NH2 [TP712]",0.25 nM
2,B1,0.35 nM
3,B2,> 19.8 nM
4,B3,1.52 nM
5,B4,3.19 nM
6,B5,0.895 nM
7,H[Aib]QGTFTSDYSKYLD[Aib]RAAK([AEEA-AEEA-γGlu-C20‑OH])DFVQWL[Met(O2)][αMeD]T-NH2 [TP588],2.67 nM
8,B6,1.56 nM
9,B7,0.27 nM
10,B8,1.48 nM

# Biological target: human GLP-1 receptor (GLP1R) (human, UniProt P43220 24-463)
# Experiment: cell-based or functional assay
row,Binder,GLP1R EC50 human
1,"H[Aib]QGTFTSDYSKYLDARAA[Nle]([1,2,3‑triazole‑5-AEEA-AEEA-γGlu-C18 diacid])DFVQWL[Met(O2)]DT-NH2 [TP712]",0.45 nM
2,B1,0.27 nM
3,B2,> 19.8 nM
4,B3,0.71 nM
5,B4,1.15 nM
6,B5,0.648 nM
7,H[Aib]QGTFTSDYSKYLD[Aib]RAAK([AEEA-AEEA-γGlu-C20‑OH])DFVQWL[Met(O2)][αMeD]T-NH2 [TP588],2.92 nM
8,B6,2.67 nM
9,B7,0.37 nM
10,B8,0.41 nM
